What was measured:
[1] = target: Lys63-linked polyubiquitin (UniProt P0CG48); assay: co-immunoprecipitation (anti-FLAG beads), immunoblot quantification; conditions: HEK293 cells; n = 3; parent: est. 1.0; read off a plot
[2] = target: p97/VCP (valosin-containing protein) (UniProt P55072); assay: as above; conditions: HEK293 cells; n = 3; parent: est. 1.0; read off a plot
Chain of UniProt P55072 (P55072 whole entry): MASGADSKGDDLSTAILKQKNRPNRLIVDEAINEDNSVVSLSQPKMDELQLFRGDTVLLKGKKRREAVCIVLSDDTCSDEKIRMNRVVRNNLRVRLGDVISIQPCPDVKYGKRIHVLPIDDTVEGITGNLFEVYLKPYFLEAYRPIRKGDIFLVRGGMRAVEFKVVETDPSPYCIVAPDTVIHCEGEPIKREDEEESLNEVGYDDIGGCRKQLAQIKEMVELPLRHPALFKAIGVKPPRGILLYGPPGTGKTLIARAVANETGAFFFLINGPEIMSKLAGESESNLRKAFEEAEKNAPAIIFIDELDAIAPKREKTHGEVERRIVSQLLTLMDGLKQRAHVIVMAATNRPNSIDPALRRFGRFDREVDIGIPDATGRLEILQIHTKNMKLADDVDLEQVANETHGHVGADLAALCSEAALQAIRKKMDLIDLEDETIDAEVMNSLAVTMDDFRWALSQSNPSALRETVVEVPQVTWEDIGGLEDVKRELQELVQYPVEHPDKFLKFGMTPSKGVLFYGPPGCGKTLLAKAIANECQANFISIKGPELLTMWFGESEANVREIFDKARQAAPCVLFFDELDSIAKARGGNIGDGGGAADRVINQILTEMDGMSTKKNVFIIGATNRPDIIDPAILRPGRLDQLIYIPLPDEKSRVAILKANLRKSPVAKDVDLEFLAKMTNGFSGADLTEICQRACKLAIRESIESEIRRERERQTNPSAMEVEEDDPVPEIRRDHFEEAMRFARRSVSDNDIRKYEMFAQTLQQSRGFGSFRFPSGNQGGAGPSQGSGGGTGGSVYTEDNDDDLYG

ratio to parent [1]: 0.36
ratio to parent [2]: 0.22
Substance: RHBDL4mycFLAG (from UniProt Q8TEB9) AllY>F
